The values below are quoted from earlier work in EP4803095A2, “FORMULATIONS OF GLUCAGON-LIKE-PEPTIDE-2 (GLP-2) ANALOGUES” (Zealand Pharma A/S, priority 2018, dated 2026).

Read-outs that look alike come from different tables or passages of the source.

For the series the following is noted: for half-life in humans: background art.

For the substance “teduglutide: GLP-2 analogue containing Gly substitution at position 2”, for the setting “in vivo”, the half-life entry was “about two”.
For the substance “GLP-2 [3-33]: truncated GLP-2 [3-33] (DGSFSDEMNTILDNLAARDFINWLIQTKITD; Glucagon-like peptide 2; UniProt P01275 148-178, looked up, fragment)”, the half-life in humans is approximately 27 min.
In the case of “Hy-His-Ala-Asp-Gly-Ser-Phe-Ser-Asp-Glu-Met-Asn-Thr-Ile-Leu-Asp-Asn-Leu-Ala-Ala-Arg-Asp-Phe-Ile-Asn-Trp-Leu-Ile-Gln-Thr-Lys-Ile-Thr-Asp-OH [GLP-2 [1-33]]”, the half-life in humans result is “around 7 minutes”. Moreover, the half-life in humans entry (listed as native GLP-2) was “seven”.
